Assay: soluble fraction after stress (log2 fold change); higher = more stays soluble; pooled small domains, quantitative proteomics
Conditions: stress: pH 4
Outline: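 Pooled custom libraries of small protein domains were subjected to pH 4 and measured by high-throughput quantitative proteomics. The log2 fold change in soluble amount per domain is reported, higher values meaning more remained soluble. This is used as a measure of aggregation propensity.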

| Sequence | soluble fraction (log2) |
| --- | --- |
| HMKSPVKLILRGSIYHIKISAVVNGQRIFVRESSHTTDKREAEQYANKRFAQLVEETEFRTN | -0.907 |
| HMKSQSIFNVKKGDTLSHIAVHVLKKNKQKVTPEAINKMVSNIAFRNKIKNPDLIFPGQKLVLEY | -0.0458 |
| HMKSQVVAYSDFVKAVNQKQINEVQIQGDKIRAINKAGEEITVTWLQNDQKLMDDLLDNNVKTIFLE | -0.282 |
| HMKSSYSGNFKQNVVEYMHNNHLSATETANHFKLGGGSVVLRWERIYYEEGPQALYEERRGR | 0.144 |
| HMKSYAQIAEILSGQQPNTSRKEGSNLAVHADWIDALIAKYGTALRPEEANEVVKKEIGIVFSHVLEN | -1 |
| HMKSYQKITPATEGNYLTTYREGDDIKTYEGVKAMYTPADFDASSVREITPEEHQSYQKAKEQALQEETEQ | 0.0912 |
| HMKTALDEAKDFLNGALSKGHRPASDVVDEAKEASISEKTLKRAKLAIGIITRKEGFGSEGKWVWELPAR | 0.0771 |
| HMKTATAKIKATPFGWLRVRETPSLNGAEIARVNSGESYKILERGEGWIKIKVSDTVEGWVSEAYVELS | -0.236 |
| HMKTEKYIQVISGTVNVRSGPGTSYAEIAKIDASQIYVVTAKEGEWLKISLANGTIGYVAGWLVKEVTG | -0.331 |
| HMKTEVNITPGIIDWIERYVQTDKISSSMTEDFQHWKSGTKKPTFNQVEAFSKAINVPLGYFFLKTPPAE | -0.902 |
| HMKTFSFEILADTVKKQRKAKGMTQAELSEATGINRSMIGQMENMTFKPSIEQLEALSQALDFNVIDLYTE | -0.767 |
| HMKTGHLPVTVIIDGRIISDNLYKTGLSNNWLADQLRKNSIKSSEDVFFAYLNPERKFIYQLRSNS | -0.098 |
| HMKTGNIVMVNLGWKGKYYSIKMFFPQVSKPSRKDVQDQIEKIYPGGKLYTFVVSNYEPGEPMLHA | -0.164 |
| HMKTITLDEAQEIALAEVDGKVTRAVEETDDGRSYYEFDIITNDQKHELEVDASSGKITKNEIDEDYVPS | -0.0471 |
| HMKTITVEDEQAGKRLDKALAELFPHYSRSALEKLIKEGQVLVNKSFVKSKYSLKLGDEISLQFEQL | 0.0205 |
| HMKTKILAPIPGSIMVVDVKVGDTVKVGDRLVQLEAMKMENNITSEKAGKITAVLVTAGQKVLQNEVMIEL | -0.52 |
| HMKTLLSMNIKNLRKKKNMTLEELAEKVGTSKQTIQRYESGKISNIPSDKIELLAKYLDTTPAKLMGW | 0.187 |
| HMKTLNKRQQDIINLAREEGFVTVEHLSEYFKVTQQTIRRDLGYLSENLYLARTYGGAFFQS | -0.535 |
| HMKTTKLEELDMQKEFILKNGKYGFGVYIGGKYIGLTDIGTVNSFKDSLQLPVVSLSDIDFKTFAEKF | -1.34 |

| Sequence | soluble fraction (log2) |
| --- | --- |
| HMKTYEILFDILSRESDYISGEKLAQELGISRTSIWKAIQHLEKEGVHIESVKNKGYKLLSGDLLIAEKI | -0.343 |
| HMKTYGGDNSLHKFDEHHSWMVAKYGPVVKQTINGETKWLKVKKDLTLAQVKKMKLEDVLLPKSQT | 0.245 |
| HMKVDRLVSMILILLEQQRVGAQELADRFEVSVRTIYRDMEAINQAGIPVRSTSGVGGGFEIM | -0.314 |
| HMKVFREERLQLILEKLIHEKKVVVSDLVKYFNVSPSLIRMDLAELEKRDLILRTHGGAILPD | -0.0668 |
| HMKVKEYKLVDWISTFTKNEGYGISQKAAMLLAEFLGDDLSRIANEIEKLKLLVEKGTTINDVHIEENI | -0.721 |
| HMKVLFLESIEGSASMGEIKDVANGYARNFLFPNGFAVPATPKNLKNVEELQAKELEIQTERDNWAA | -0.713 |
| HMKVSDLIGMLGRVTGELAPTGIVLVGNKTWTAISEDASVIASGEQVQVRSVAGLILTVSHQVD | -0.954 |
| HMKVSVPDIMDNSSLRQAEAKLRALGFRVTEPEYISGEKDWVYSVTYKGRTLNAGDKVPHEALLTLHVGNG | ≥ 0.43 |
| HMKVTADVVVADRLKAWIISNNLKPGDRLPTEQKLSEELGVARHTLREGIKRLSQLGIIGSRTGSGMYVKN | 0.158 |
| HMKWIEILKSKDGNYALLQDEKDTQFVVASGYNPDAAEDQKWGHGSYFIYWNNKENKAEMLMNAIDLFRYR | -1.34 |
| HMKYEFEFPYWSNKEAKHMIVTINYPNGTRATASIQDNDGSNPDYKRIMEEFGEEQIDANTEEGLKRR | -0.816 |
| HMKYEGEDEYYASLVTEKIAAIGTVTEESEDAIKEARAAYDALTSAQKKLVTNYDVLDEAEK | 0.302 |
| HMKYGPSTVATLKVARLGEMGAFLDAETGDTSDDILLHKTQQTAPVKVGDEVEVFLYLDPKRRLTASMRV | -1.07 |
| HMKYGPSTVAVLTVVRESEMGAFLDAETGRTNDDILLHKTQQTEPVHIGDQVKVFLYLDPKHRLTASMRVP | -1.24 |
| HMKYNETEFKNLVAKLYNGEIEIVGKFTGLSYPILVKDKYGIMLSQKANLILNYRPTINIALNKTEYAMN | -0.4 |
| HMKYSELLLEIILQSKEHPTAEQIFIEAKKRNPKIVQATVYNNLKNLLAQGRVIRISNPGQPDRYDNT | 0.0505 |
| HMKYVDYYATLGVARDADLATITKAYRKLARQTHPDLNQGADNEARFKAAAEAYATLKHPEKRAAYDELGQ | 0.117 |
| HMKYWTISDLYSKLEEDQVELGAFSEDSNKVTVLDRQGYEHVIKILSSDVPALTELFRKKKVRFAVAG | 0.0959 |
